Test results reported in the supplement of paper PMC7125110.
± gives the standard error. Fewer inactive variants are shown than the library holds.

B1: glmS ribozyme (parent)
chain: AUAAAAGCGCCAGAACUACAGAAAUGUAGUUGACGAGGAGGAGGUUUAUCGAAUUUUCGGCGGAUGCCUCCAAA

Variants of: B1
Experiment: self-cleavage kobs at 2500 uM GlcN6P; higher = faster cleavage; RNA array
Details: with glucosamine-6-phosphate
Outline: (§1)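 E. coli RNA polymerase transcribed barcoded ribozyme variants in situ on sequenced MiSeq chips, which were tracked via a hybridised Cy3 probe at 37 °C. Tiles were imaged over ~14 h after glucosamine-6-phosphate (40 μM to 10 mM) in HEPES/KCl/Mg(OAc)2 buffer was flowed in. Normalised per-tile medians were fit to one- or two-exponential decays for kobs, and kcat and KM came from weighted Michaelis–Menten fits.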

Question: With AUAAAAGCGCCAGAACUACAGAAAUGUAGUUGACGAGGAGGAGGUUGUUCGAAUUGUCGGCGGAUGCAUCCAAA [U47G A48U U56G C68A] as the variant, how does the “self-cleavage kobs at 2500 uM GlcN6P” value read?
Answer: 0.000324 ± 0.00012 s⁻¹

Question: Which “self-cleavage kobs at 2500 uM GlcN6P” value does the source give for AUAAAAGCGCCUCAACUACAGAAAUGUAGUUGACGAGGAGGAGGUUUAUCGAAUUGUCGGCGGAUGUCUCCAAA [A12U G13C U56G C67U] here?
Answer: < 1e-05 s⁻¹

Question: For AUAAAAGCGCCAGAACUACAGAAAUGUAGUUGACGCGGAGUAUGUUUAUCCAAUUUUGGACGGAUGACUCCAAA [A36C G41U G43U G51C C58G G60A C67A], which “self-cleavage kobs at 2500 uM GlcN6P” value is on record?
Answer: < 1e-05 s⁻¹

Question: AUAAAAGCGCCAGAACUACAGAAAUGUAGUUGUCGAGGAGUAGGUUUAUCGAAUUUUCGGCUGAUGCCUCCAAA [A33U G41U G62U] was tested. Which “self-cleavage kobs at 2500 uM GlcN6P” value did it give?
Answer: < 1e-05 s⁻¹

Question: With AUAAAAGCGCCAGAACUACAGAAAUGUAGUUGACGAAGACGGGGUUUAUCGAAUUUUCGGCGGAUGCCUCCAAA [G37A G40C A42G] as the variant, how does the “self-cleavage kobs at 2500 uM GlcN6P” value read?
Answer: 0.000126 ± 4.4e-05 s⁻¹

Question: Which “self-cleavage kobs at 2500 uM GlcN6P” value does the source give for AUAAAAGCGCCAGAACUACAGAAAUGUAGUUGACGAGGAGGAGGUGUAUCGAACUUUGGGCGGAAGCCUCCAAA [U46G U54C C58G U65A] here?
Answer: < 1e-05 s⁻¹

Question: Which “self-cleavage kobs at 2500 uM GlcN6P” value does the source give for AUAAAAGCGCCAGAACUACAGAAAUGUAGUUGACGAUGAGGAGUUUUAUCGAAUUUUCAGCGGAUGCCUUCAAA [G37U G44U G59A C70U] here?
Answer: < 1e-05 s⁻¹

Question: For AUAAAAGCGCCAGAACUACAGAAAUGUAGUUGACGAGCAGGAGGUUUAUCGAUUUUUCGGCGGAUGCCUCCAAA [G38C A53U], which “self-cleavage kobs at 2500 uM GlcN6P” value is on record?
Answer: < 1e-05 s⁻¹

Question: With AUAAAAGGGCCAGAACUACAGAAAUGUAGUUGACGAAGUGGAGGUUUAUCGAAUUUUCGGCGGAUGCCUCCAAA [C8G G37A A39U] as the variant, how does the “self-cleavage kobs at 2500 uM GlcN6P” value read?
Answer: < 1e-05 s⁻¹

Question: How did the “self-cleavage kobs at 2500 uM GlcN6P” value turn out when AUAAAAGCGCCAGUACUACAGAAAUGUAGUUGACGAGGAGGAGGUUUAUAGAAUUUUCGGCGGAUGCCUCAAAA [A14U C50A C71A] was run?
Answer: 4.46e-05 ± 2.1e-05 s⁻¹

Question: AUAAAAGCGCCAGAACUACAGAAAUGUAGUUGACAAGGAGGAGGUUUAUGGAAGUUUCGGCGGCUGCCUCCAAA [G35A C50G U54G A64C] was tested. Which “self-cleavage kobs at 2500 uM GlcN6P” value did it give?
Answer: 7.23e-05 ± 2.7e-05 s⁻¹

Question: For AUAAAAGCGCCGGAACUACAGAAAUGUAGUUGACGAGGAGGAGGUUUAUCGAGUUUUCGGCGCAUGCCUCCAAA [A12G A53G G63C], which “self-cleavage kobs at 2500 uM GlcN6P” value is on record?
Answer: < 1e-05 s⁻¹

Question: With AUAAAAGCGCCAGAGCUACAGAAAUGUAGUGGACGAGGAGGAGGUUGAUCGAAUUUUCGGCGGAUGCCUCCAAA [A15G U31G U47G] as the variant, how does the “self-cleavage kobs at 2500 uM GlcN6P” value read?
Answer: 0.000803 ± 0.00015 s⁻¹

Question: For AUAAAAGCGCCAGAACUACAGAAAUGUAGGUGACGAGGAGGAUGUUUAUCGGAUUUUCGGCGGAUGACGCCAAA [U30G G43U A52G C67A U69G], which “self-cleavage kobs at 2500 uM GlcN6P” value is on record?
Answer: < 1e-05 s⁻¹

Question: For AUAAAGGCGCCAGAACUACAGAAAUGUAGUUGACGAGGAGGAUAUUUUUCGAAUUUUCGGCGAAUGCCUCCAAA [A6G G43U G44A A48U G63A], which “self-cleavage kobs at 2500 uM GlcN6P” value is on record?
Answer: < 1e-05 s⁻¹

Question: For AUAAAAGAGCCAGAACUACAGAAAUGUAGUUGACGAGGAGGAGGUUUCACGAAUUUUCGGCGGAUGCCUCCAAA [C8A A48C U49A], which “self-cleavage kobs at 2500 uM GlcN6P” value is on record?
Answer: < 1e-05 s⁻¹

Question: With AUAAAAGCGCCAGAACUACAGAAAUGUAGUUCACGAGGAGGAGGUUUAUCGAAUUUUCGGCGGAUUCCUACAAA [G32C G66U C70A] as the variant, how does the “self-cleavage kobs at 2500 uM GlcN6P” value read?
Answer: < 1e-05 s⁻¹

Question: How did the “self-cleavage kobs at 2500 uM GlcN6P” value turn out when AUAAAAGCGCCAGAACUACAGAAAUGUAGUUCACUAGGAGCAGGUUUAUCGAAUUUUAGGCGGGUGCCUCCAAA [G32C G35U G41C C58A A64G] was run?
Answer: < 1e-05 s⁻¹

Question: How did the “self-cleavage kobs at 2500 uM GlcN6P” value turn out when AUAAAAGCGCCAGAACUACAGAAAUGUAGUUGUAGAGAAGGAGGUUUAUAGAAUUUUCGGCGGAUGCCUGCAAA [A33U C34A G38A C50A C70G] was run?
Answer: 0.00153 ± 0.0004 s⁻¹

Question: How did the “self-cleavage kobs at 2500 uM GlcN6P” value turn out when AUAAAAUCGCCAGAACUACAGAAAUGUAGUUGACGAGGAGGAGGUUUAUCGAACUUUCGGAGGAUGCCUCCAAA [G7U U54C C61A] was run?
Answer: < 1e-05 s⁻¹

Question: How did the “self-cleavage kobs at 2500 uM GlcN6P” value turn out when AUAAAAGCGCCAGAACUACAGAAAUGUAGUUGACGAGGAGGAGGAUUAUCGAAUCUCCGGCGGAUGCCUCCAAA [U45A U55C U57C] was run?
Answer: 8.32e-05 ± 1.8e-05 s⁻¹

Question: Which “self-cleavage kobs at 2500 uM GlcN6P” value does the source give for AUAAAAGCGCUAGACCUACAGAAAUGUAGUUGACGAGGAGGAGGUUUAUCGAAUUUUCGGCGUAAGACUCCAAA [C11U A15C G63U U65A C67A] here?
Answer: < 1e-05 s⁻¹

Question: How did the “self-cleavage kobs at 2500 uM GlcN6P” value turn out when AUAAAAGCGCCAGAACUACAGAAAUGUAGUUGACGAGAUGGAGGUUUAUCGAAUUUUCGGCGGCUGCCUCCAAA [G38A A39U A64C] was run?
Answer: < 1e-05 s⁻¹

Question: Which “self-cleavage kobs at 2500 uM GlcN6P” value does the source give for AUAAAAGCGCCAGCACUACAGAAAUGUAGUUGAGGAGGAGGAGGUUUCUCGAAUUUUCGGCGGAUGCCUCCAAA [A14C C34G A48C] here?
Answer: < 1e-05 s⁻¹

Question: AUAAAAGCGCCGGAACUACAGAAAUGUAGUUGACGAGGAGGAGGGUUAUAGAAUUUGCGGCGGAUGCCUCCAAA [A12G U45G C50A U57G] was tested. Which “self-cleavage kobs at 2500 uM GlcN6P” value did it give?
Answer: < 1e-05 s⁻¹

Question: For AUAAAAGCGCCAGAACUACAGAAAUGUAGUUUACGAGGACGGGGUUUAUCGAAUUUUCGGCGGAUGCCUCCAAA [G32U G40C A42G], which “self-cleavage kobs at 2500 uM GlcN6P” value is on record?
Answer: 7.39e-05 ± 1.8e-05 s⁻¹

Question: For AUAAAAGUGCCAGAACUACAGAAAUGUAGUUGACGUGGAGGAGGUUUAUUGAAUUUUCGGCGGAUGCCUCCAAA [C8U A36U C50U], which “self-cleavage kobs at 2500 uM GlcN6P” value is on record?
Answer: < 1e-05 s⁻¹

Question: With AUAAAAGCGCCAGAACUACAGAAAUGUAGUUGACGAGGAGGAAGUUUAUCGAAUCUUCUGCGGAUGGCUCCAAA [G43A U55C G59U C67G] as the variant, how does the “self-cleavage kobs at 2500 uM GlcN6P” value read?
Answer: < 1e-05 s⁻¹

Question: Which “self-cleavage kobs at 2500 uM GlcN6P” value does the source give for AUAAAAGCGCCCGAACUACAGAAAUGUAGAUGACGAGGAGGAGGUUUAUCGAAUUUUCGACGGAUGCCUCCAAA [A12C U30A G60A] here?
Answer: < 1e-05 s⁻¹

Question: With AUAAAAGCGCCAGAACUACAGAAAUGUAGUUGACGAGGAGGAGGUUUAUCGAAUUCUCGGCGGUCGCCUCCAAA [U56C A64U U65C] as the variant, how does the “self-cleavage kobs at 2500 uM GlcN6P” value read?
Answer: < 1e-05 s⁻¹

Question: How did the “self-cleavage kobs at 2500 uM GlcN6P” value turn out when AUAAAAGCGACAGAACUACAGAAAUGUAGUUGACGAGGAAGAGGUUCGUCGAAUUUUCGGCGGAUGCCUUCAAA [C10A G40A U47C A48G C70U] was run?
Answer: < 1e-05 s⁻¹

Question: How did the “self-cleavage kobs at 2500 uM GlcN6P” value turn out when AUAAAAGCGCCAGAACUACAGAAAUGUAGUUGACGAGGAGGAGGUUUAUCGGAUUUUCGGCGGAUGCUUUCAAA [A52G C68U C70U] was run?
Answer: 0.000745 ± 0.00024 s⁻¹

Variants of: B1
Experiment: self-cleavage kobs at 10000 uM GlcN6P; higher = faster cleavage; RNA array
Details: with glucosamine-6-phosphate
Outline: as §1

Question: How did the “self-cleavage kobs at 10000 uM GlcN6P” value turn out when AUAAAAGCGCCAGAACUACAGAAAUGUAGUUGACGAGGAGGAGGUUGUUCGAAUUGUCGGCGGAUGCAUCCAAA [U47G A48U U56G C68A] was run?
Answer: 4.62e-05 ± 1.6e-05 s⁻¹

Question: AUAAAAGCGCCAGAACUACAGAAAUGUAGUUGACGAGCAGGAGGUUUAUCGAUUUUUCGGCGGAUGCCUCCAAA [G38C A53U] was tested. Which “self-cleavage kobs at 10000 uM GlcN6P” value did it give?
Answer: < 1e-05 s⁻¹

Question: With AUAAAAGCGCCAGAACUACAGAAAUGUAGUUGACGAGGAGGAGGAUUAUCGAAUCUCCGGCGGAUGCCUCCAAA [U45A U55C U57C] as the variant, how does the “self-cleavage kobs at 10000 uM GlcN6P” value read?
Answer: 0.00033 ± 7.3e-05 s⁻¹

Question: Which “self-cleavage kobs at 10000 uM GlcN6P” value does the source give for AUAAAAGCGCCAGCACUACAGAAAUGUAGUUGAGGAGGAGGAGGUUUCUCGAAUUUUCGGCGGAUGCCUCCAAA [A14C C34G A48C] here?
Answer: < 1e-05 s⁻¹

Question: How did the “self-cleavage kobs at 10000 uM GlcN6P” value turn out when AUAAAAGCGCCGGAACUACAGAAAUGUAGUUGACGAGGAGGAGGGUUAUAGAAUUUGCGGCGGAUGCCUCCAAA [A12G U45G C50A U57G] was run?
Answer: < 1e-05 s⁻¹

Question: AUAAAAGCGCCCGAACUACAGAAAUGUAGAUGACGAGGAGGAGGUUUAUCGAAUUUUCGACGGAUGCCUCCAAA [A12C U30A G60A] was tested. Which “self-cleavage kobs at 10000 uM GlcN6P” value did it give?
Answer: < 1e-05 s⁻¹
